For test [1], the target named is chromatin remodeling protein (SYD) (Arabidopsis thaliana). Kind of test: TAP-MS, C-terminal GS tag.
The target in test [2] is DNA-binding bromodomain-containing protein (AT1G20670) (Arabidopsis thaliana). Kind of test: TAP-MS, C-terminal GS tag.
The target in test [3] is homeobox-leucine zipper protein (HB-2)/HD-ZIP protein (Arabidopsis thaliana). Kind of test: TAP-MS, C-terminal GS tag.
For test [4], the target named is T1, actin-related protein 7 (ARP7) (Arabidopsis thaliana).
T1 sequence (Q8L4Y5 1-363, looked up): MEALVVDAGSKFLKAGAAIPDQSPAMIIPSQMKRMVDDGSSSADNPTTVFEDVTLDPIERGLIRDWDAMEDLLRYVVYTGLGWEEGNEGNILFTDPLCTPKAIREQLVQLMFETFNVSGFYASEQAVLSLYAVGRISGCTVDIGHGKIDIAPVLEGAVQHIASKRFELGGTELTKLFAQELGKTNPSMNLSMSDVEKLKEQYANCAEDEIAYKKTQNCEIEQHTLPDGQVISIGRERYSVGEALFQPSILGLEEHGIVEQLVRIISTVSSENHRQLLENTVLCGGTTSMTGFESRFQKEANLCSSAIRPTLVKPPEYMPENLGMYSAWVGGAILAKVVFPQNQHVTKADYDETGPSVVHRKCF
Nature of the test: TAP-MS, C-terminal GS tag.

The target in test [5] is importin alpha-1 subunit (IMPA1) (Arabidopsis thaliana). Nature of the test: TAP-MS, C-terminal GS tag.
Test [6] concerns the target T2, actin-related protein 4 (ARP4) (Arabidopsis thaliana).
T2 sequence (Q84M92 1-441, looked up): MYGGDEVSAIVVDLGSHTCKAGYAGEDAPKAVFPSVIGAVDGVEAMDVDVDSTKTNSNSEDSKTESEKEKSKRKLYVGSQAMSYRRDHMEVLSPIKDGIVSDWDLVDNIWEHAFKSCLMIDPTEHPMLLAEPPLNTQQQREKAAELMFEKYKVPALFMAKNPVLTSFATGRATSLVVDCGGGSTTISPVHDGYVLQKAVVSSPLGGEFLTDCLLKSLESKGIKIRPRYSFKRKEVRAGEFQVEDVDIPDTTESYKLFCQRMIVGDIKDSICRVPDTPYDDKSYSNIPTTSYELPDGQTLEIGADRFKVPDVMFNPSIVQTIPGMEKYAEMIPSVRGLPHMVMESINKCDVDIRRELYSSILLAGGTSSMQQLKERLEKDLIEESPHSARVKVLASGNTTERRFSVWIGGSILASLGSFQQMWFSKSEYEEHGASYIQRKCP
Kind of test: TAP-MS, C-terminal GS tag.

Test [7] has as its target expressed protein, similar to DAG protein (AT3G15000) (Arabidopsis thaliana). Nature of the test: TAP-MS, C-terminal GS tag.
The target of test [8] is G2484-1, agenet domain-containing protein (Arabidopsis thaliana). Nature of the test: TAP-MS, C-terminal GS tag.
Test [9] addresses importin alpha-1 subunit (IMPA4) (Arabidopsis thaliana). Nature of the test: TAP-MS, C-terminal GS tag.
Test [10] deals with SNF2 protein (BRM) (Arabidopsis thaliana). Nature of the test: TAP-MS, C-terminal GS tag.
The target of test [11] is 26S proteasome regulatory subunit (RPN9) (Arabidopsis thaliana). Kind of test: TAP-MS, C-terminal GS tag.
The target of test [12] is T3, phytochrome A supressor spa1 (SPA1) (Arabidopsis thaliana).
T3 sequence (Q9SYX2 1-1029, looked up): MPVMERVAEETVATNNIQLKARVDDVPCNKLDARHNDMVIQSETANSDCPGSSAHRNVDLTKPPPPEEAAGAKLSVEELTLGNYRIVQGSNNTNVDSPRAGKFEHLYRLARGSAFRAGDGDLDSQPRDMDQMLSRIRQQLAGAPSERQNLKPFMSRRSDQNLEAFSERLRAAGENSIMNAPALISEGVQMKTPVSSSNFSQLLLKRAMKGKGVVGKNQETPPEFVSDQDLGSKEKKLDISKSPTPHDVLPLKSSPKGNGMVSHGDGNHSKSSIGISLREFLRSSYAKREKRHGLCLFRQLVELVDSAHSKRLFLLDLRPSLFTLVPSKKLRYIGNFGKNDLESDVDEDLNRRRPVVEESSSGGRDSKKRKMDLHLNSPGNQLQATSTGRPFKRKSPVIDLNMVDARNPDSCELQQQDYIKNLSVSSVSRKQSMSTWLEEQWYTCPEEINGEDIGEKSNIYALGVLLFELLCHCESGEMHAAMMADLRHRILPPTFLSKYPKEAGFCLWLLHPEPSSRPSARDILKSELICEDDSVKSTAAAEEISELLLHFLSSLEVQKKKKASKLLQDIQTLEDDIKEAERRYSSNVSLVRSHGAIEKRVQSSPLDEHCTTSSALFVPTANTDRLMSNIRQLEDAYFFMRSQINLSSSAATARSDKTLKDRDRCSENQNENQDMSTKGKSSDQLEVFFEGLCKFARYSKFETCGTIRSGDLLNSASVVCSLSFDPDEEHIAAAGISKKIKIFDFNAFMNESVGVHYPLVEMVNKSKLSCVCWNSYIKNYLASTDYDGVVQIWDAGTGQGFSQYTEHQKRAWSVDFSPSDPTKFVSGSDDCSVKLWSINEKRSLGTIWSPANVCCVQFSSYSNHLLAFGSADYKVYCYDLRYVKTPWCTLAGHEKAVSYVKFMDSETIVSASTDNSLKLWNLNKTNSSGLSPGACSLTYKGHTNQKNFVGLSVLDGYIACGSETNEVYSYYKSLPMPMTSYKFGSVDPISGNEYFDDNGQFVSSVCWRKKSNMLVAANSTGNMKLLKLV
Kind of test: TAP-MS, C-terminal GS tag.

The target in test [13] is expressed protein, similar to At4g22320 (AT5G55210) (Arabidopsis thaliana). Kind of test: TAP-MS, C-terminal GS tag.
Test [14] addresses expressed protein (AT5G13030) (Arabidopsis thaliana). Kind of test: TAP-MS, C-terminal GS tag.
Test [15] deals with T4, SWIRM domain-containing protein (SWI3C) (Arabidopsis thaliana).
T4 sequence (Q9XI07 1-807, looked up): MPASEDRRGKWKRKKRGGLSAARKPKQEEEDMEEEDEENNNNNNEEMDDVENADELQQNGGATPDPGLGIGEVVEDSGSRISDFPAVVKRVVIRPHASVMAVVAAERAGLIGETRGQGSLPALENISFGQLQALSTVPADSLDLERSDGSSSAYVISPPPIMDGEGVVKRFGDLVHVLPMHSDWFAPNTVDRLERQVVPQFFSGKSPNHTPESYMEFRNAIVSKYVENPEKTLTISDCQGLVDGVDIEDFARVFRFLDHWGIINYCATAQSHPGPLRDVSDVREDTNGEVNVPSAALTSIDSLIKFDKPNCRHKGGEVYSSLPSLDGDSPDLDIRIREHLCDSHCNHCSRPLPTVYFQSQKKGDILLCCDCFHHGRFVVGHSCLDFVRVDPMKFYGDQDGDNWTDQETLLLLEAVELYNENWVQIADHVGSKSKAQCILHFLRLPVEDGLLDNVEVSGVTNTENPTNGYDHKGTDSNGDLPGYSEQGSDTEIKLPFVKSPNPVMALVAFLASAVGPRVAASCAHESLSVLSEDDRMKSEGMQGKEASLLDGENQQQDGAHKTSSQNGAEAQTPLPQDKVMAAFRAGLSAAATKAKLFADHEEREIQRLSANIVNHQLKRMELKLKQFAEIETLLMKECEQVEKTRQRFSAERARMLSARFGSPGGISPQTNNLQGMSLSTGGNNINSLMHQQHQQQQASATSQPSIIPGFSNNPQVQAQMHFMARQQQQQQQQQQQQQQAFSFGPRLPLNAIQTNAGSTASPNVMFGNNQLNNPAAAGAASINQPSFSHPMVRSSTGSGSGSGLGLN
Nature of the test: TAP-MS, C-terminal GS tag.

In test [16] the target is expressed protein, similar to At3g03460 (AT5G17510) (Arabidopsis thaliana). Nature of the test: TAP-MS, C-terminal GS tag.
The target in test [17] is importin alpha-2 (IMPA2) (Arabidopsis thaliana). Nature of the test: TAP-MS, C-terminal GS tag.
Test [18] has as its target importin beta-2 (Arabidopsis thaliana). Kind of test: TAP-MS, C-terminal GS tag.
Test [19] concerns the target splicing factor (AT3G55220) (Arabidopsis thaliana). Nature of the test: TAP-MS, C-terminal GS tag.
The target in test [20] is SWIB complex BAF60b domain-containing protein (Swp73B) (Arabidopsis thaliana). Kind of test: TAP-MS, C-terminal GS tag.
The target in test [21] is T5, TAF14B, GAS41 (Arabidopsis thaliana).
T5 sequence (Q9FH40 1-268, looked up): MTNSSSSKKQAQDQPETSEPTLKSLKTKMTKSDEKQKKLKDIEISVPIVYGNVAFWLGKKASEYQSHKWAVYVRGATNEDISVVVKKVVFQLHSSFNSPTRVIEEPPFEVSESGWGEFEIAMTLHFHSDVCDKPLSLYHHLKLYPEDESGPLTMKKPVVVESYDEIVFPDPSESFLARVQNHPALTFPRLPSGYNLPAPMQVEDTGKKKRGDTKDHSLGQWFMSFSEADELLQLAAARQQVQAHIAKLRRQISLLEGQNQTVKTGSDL
Kind of test: TAP-MS, N-terminal GS tag.

In test [22] the target is T1, actin-related protein 7 (ARP7) (Arabidopsis thaliana). Nature of the test: TAP-MS, N-terminal GS tag.
Test [23] addresses T6, SE (SERRATE) (Arabidopsis thaliana).
T6 sequence (Q9ZVD0 1-720, looked up): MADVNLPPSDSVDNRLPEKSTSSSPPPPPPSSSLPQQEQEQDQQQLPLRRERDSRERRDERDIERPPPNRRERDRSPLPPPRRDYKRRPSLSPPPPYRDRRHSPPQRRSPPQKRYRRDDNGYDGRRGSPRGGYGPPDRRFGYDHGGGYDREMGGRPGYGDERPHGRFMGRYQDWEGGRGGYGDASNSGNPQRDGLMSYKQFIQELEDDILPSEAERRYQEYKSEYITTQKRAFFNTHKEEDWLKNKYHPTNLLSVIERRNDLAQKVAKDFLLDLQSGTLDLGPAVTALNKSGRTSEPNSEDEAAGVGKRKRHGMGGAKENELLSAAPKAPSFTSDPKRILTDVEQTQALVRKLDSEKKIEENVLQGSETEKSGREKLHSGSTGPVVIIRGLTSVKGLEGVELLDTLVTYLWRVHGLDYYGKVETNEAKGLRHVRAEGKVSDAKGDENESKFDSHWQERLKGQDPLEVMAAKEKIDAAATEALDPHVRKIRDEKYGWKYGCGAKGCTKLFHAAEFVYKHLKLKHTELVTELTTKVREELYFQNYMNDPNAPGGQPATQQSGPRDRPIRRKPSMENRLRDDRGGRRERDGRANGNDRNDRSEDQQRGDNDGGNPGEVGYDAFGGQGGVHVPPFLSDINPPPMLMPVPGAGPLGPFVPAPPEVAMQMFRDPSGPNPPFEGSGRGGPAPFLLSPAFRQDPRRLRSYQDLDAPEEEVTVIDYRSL
Nature of the test: TAP-MS, N-terminal GS tag.

Test [24] has as its target chaperonin (AT5G26360) (Arabidopsis thaliana). Nature of the test: TAP-MS, N-terminal GS tag.
For test [25], the target named is protein coding (AT5G14240) (Arabidopsis thaliana). Kind of test: TAP-MS, N-terminal GS tag.
For test [26], the target named is PHD finger protein (AT1G54390) (Arabidopsis thaliana). Kind of test: TAP-MS, N-terminal GS tag.

B1: AN3-GS (protein, UniProt Q8L8A5 1-210, looked up)
GRF1-interacting factor 1: MQQHLMQMQPMMAGYYPSNVTSDHIQQYLDENKSLILKIVESQNSGKLSECAENQARLQRNLMYLAAIADSQPQPPSVHSQYGSAGGGMIQGEGGSHYLQQQQATQQQQMTQQSLMAARSSMLYAQQQQQQQPYATLQHQQLHHSQLGMSSSSGGGGSSGLHILQGEAGGFHDFGRGKPEMGSGGGGEGRGGSSGDGGETLYLKSSDDGN
modifications: C-terminal GS tag
With B1, the C-GS (times co-purified) in [1] turned out to be 4; in [2] it was 1; in test [3], 1; in test [4] it was 4; in [5], 4; in test [6], 4. Moreover, the C-GS (times co-purified) came to 3 in test [7]; 4 in [8]; 1 in test [9]; 4 in test [10]; 1 in test [11]; 1 in test [12]. In addition, the C-GS (times co-purified) in [13] worked out at 4; in test [14] it was 1; in test [15], 4; in test [16] it was 3; in [17] it was 4; in test [18], 4. Also, the C-GS (times co-purified) is 1 in test [19] and 4 in [20].

B2: GS-ARP4 (protein, UniProt Q84M92 1-441, looked up)
Actin-related protein 4: MYGGDEVSAIVVDLGSHTCKAGYAGEDAPKAVFPSVIGAVDGVEAMDVDVDSTKTNSNSEDSKTESEKEKSKRKLYVGSQAMSYRRDHMEVLSPIKDGIVSDWDLVDNIWEHAFKSCLMIDPTEHPMLLAEPPLNTQQQREKAAELMFEKYKVPALFMAKNPVLTSFATGRATSLVVDCGGGSTTISPVHDGYVLQKAVVSSPLGGEFLTDCLLKSLESKGIKIRPRYSFKRKEVRAGEFQVEDVDIPDTTESYKLFCQRMIVGDIKDSICRVPDTPYDDKSYSNIPTTSYELPDGQTLEIGADRFKVPDVMFNPSIVQTIPGMEKYAEMIPSVRGLPHMVMESINKCDVDIRRELYSSILLAGGTSSMQQLKERLEKDLIEESPHSARVKVLASGNTTERRFSVWIGGSILASLGSFQQMWFSKSEYEEHGASYIQRKCP
modifications: N-terminal GS tag
As to B2, the N-GS (times co-purified) amounted to 2 in test [21]; 2 in test [22]; 1 in test [23]; 2 in test [24]; 2 in [25]; 1 in test [26].

For the origin of these results see US20120324602A1.
